This note sets out measurements from patent US20240035010, “COMPOSITIONS COMPRISING A VARIANT POLYPEPTIDE AND USES THEREOF” (Arbor Biotechnologies, Inc., published 2024).

Numbering of substitutions follows the chain as printed.

Common to all, as to conditions: tags: pcDNA3.1 expression
The target in series [1] is T1, variant nuclease SEQ ID NO: 53 (P14R, D32R, I61R, E311R, T338G, E736G).
T1 chain: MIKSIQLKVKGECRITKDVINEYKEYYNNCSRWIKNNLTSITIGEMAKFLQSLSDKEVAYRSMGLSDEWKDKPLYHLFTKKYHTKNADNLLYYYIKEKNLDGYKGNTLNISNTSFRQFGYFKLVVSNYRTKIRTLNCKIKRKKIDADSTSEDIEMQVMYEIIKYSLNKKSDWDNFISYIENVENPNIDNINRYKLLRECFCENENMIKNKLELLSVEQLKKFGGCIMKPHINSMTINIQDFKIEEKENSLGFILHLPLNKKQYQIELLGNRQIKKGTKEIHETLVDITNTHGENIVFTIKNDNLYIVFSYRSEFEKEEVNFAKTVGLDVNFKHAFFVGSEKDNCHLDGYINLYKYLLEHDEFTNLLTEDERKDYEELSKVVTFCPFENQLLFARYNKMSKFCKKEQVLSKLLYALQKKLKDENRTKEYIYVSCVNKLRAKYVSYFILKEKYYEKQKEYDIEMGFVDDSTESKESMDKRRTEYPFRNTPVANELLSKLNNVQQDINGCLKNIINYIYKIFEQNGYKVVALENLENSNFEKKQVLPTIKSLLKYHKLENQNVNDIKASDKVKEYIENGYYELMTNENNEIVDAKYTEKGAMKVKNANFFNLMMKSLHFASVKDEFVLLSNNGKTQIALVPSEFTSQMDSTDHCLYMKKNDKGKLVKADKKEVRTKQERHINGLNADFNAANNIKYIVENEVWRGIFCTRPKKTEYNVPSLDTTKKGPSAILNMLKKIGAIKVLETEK
Description: cell_activity; % indels; HEK293T; PAM 5'-TTTG-3'.

In series [2] the target is T1, variant nuclease SEQ ID NO: 53 (P14R, …). The series can be described thus: cell_activity; % indels; HEK293T; PAM 5'-ATTG-3'.
In series [3] the target is T2, variant nuclease D590G combination (P14R, D32R, I61R, E311R, D590G).
T2 chain: T1 chain with G338T, D590G, G736E
Description: cell_activity; PAM 5'-ATTG-3'.

The target in series [4] is T3, variant nuclease E736G combination (P14R, D32R, I61R, E311R, E736G).
T3 chain: T1 chain with G338T
The series can be described thus: cell_activity; PAM 5'-ATTG-3'.

B1: AAVS1 crRNA ; AAVS1 target (ssRNA ; dsDNA)
RNA: CUUGUUGUAUAUGUCCUUUUAUAGGUAUUAAACAACUGAGAAUGGUGCGUCCUAGG
DNA 1: TGAGAATGGTGCGTCCTAGG
DNA 2: CCTAGGACGCACCATTCTCA
With B1, the indel editing activity in series [1] is 6.11 fold of WT.

B2: EMX1 crRNA ; EMX1 target (ssRNA ; dsDNA)
RNA: CUUGUUGUAUAUGUCCUUUUAUAGGUAUUAAACAACCCGCCGCUUCCUGAGCCAUC
DNA 1: CCGCCGCTTCCTGAGCCATC
DNA 2: GATGGCTCAGGAAGCGGCGG
As to B2, in series [2], the indel frequency was 11.9 fold of WT. Besides, the indel editing activity in series [3] was 7.43 fold of WT; in series [4] it was 10.1 fold of WT.
